The term EC50 denotes the concentration needed to bring the measured effect to its halfway point. A higher EC50 goes with lower potency in that assay.

Among the data in patent publication US20240262929A1 (IBIO, published 2024) are binding result and EC50 values, retold here.

Assay [1] concerns the target T1, engineered epitope 1, 58-mer of MUC16 non-shed domain, glycosylated (N-glycosylated (expressed in mammalian cells, used in glycosylated form); biotinylated for the Octet assay).
T1 peptide: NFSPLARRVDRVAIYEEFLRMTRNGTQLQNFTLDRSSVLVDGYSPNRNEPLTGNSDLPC
The assay is described as follows: hybridoma ELISA screen / dose-response (FIG. 8).

For assay [2], the target named is T2, MUC16 on OVCAR-3 (MUC16high) and SKOV-3 (MUC16low) ovarian cancer cells (UniProt Q8WXI7 1-14507, limits assumed).
T2 construct: whole, on cells; also called MUC16high cells; MUC16low cells
In words: cell binding on OVCAR3 cells (FIG. 9A).

Assay [3] has as its target T3, 230-mer MUC16 shed domain (UniProt Q8WXI7 14164-14393, biotinylated for the Octet assay).
T3 construct: domain: 230-mer MUC16 shed domain
T3 sequence: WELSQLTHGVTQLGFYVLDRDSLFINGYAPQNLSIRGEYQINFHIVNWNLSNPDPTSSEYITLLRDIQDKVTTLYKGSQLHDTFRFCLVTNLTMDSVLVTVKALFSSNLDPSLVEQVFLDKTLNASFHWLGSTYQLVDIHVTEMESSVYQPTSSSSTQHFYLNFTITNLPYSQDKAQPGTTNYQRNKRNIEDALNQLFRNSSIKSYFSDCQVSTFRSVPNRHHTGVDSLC
In words: binding graphs of FIG. 10 (presumably BLI as for FIG. 5A).

The target of assay [4] is T4, engineered epitope 2, 29-mer of MUC16 non-shed domain, aglycosylated (aglycosylated (produced synthetically); biotinylated for the Octet assay).
T4 peptide: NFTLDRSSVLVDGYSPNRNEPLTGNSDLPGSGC
The assay is described as above.

Assay [5] has as its target T5, engineered epitope 2, 29-mer of MUC16 non-shed domain, aglycosylated (aglycosylated (produced synthetically); biotinylated for the Octet assay).
T5 peptide: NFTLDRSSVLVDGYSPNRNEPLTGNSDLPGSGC
The assay is described as follows: ELISA; table columns appear swapped relative to plotted curves. (In general: An ELISA detects its analyte on a solid surface through an enzyme-linked reagent.)

Assay [6] has as its target T6, engineered epitope 1, 58-mer of MUC16 non-shed domain, glycosylated (N-glycosylated (expressed in mammalian cells, used in glycosylated form); biotinylated for the Octet assay).
T6 peptide: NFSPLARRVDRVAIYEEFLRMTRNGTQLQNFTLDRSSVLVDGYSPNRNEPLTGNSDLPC
Described as above.

Assay [7] deals with T4, engineered epitope 2, 29-mer of MUC16 …. In words: ELISA dose-response (FIG. 3).
Assay [8] concerns the target T1, engineered epitope 1, 58-mer of MUC16 …. The assay is described as follows: ELISA dose-response (FIG. 3).
Assay [9] deals with T3, 230-mer MUC16 shed domain. In words: BLI (Octet), biotinylated 230-mer shed domain on streptavidin biosensor, increasing concentrations of purified antibody. The protocol:
Methods: Biotinylated 29-mer engineered epitope, glycosylated 58-mer engineered epitope, 230-mer MUC16 shed domain and 288-mer MUC16 extra-cellular domain were immobilized on a Pall Octet 384-Red streptavidin biosensor. Immobilized biosensor tips were dipped into increasing concentration of purified antibody with a 4 minute association followed by a 3 minute dissociation.

Assay [10] deals with T5, engineered epitope 2, 29-mer of MUC16 …. In words: ELISA.
The target in assay [11] is T6, engineered epitope 1, 58-mer of MUC16 …. The assay is described as follows: ELISA.
Assay [12] deals with T2, MUC16 on OVCAR-3 (MUC16high) and SKOV-3 …. The assay is described as follows: flow cytometry, hybridoma supernatant on OVCAR-3 or SKOV-3 cells (FIG. 5B). As to the method:
Methods: Hybridoma supernatants were diluted 1:2 into FACS buffer containing OVCAR-3 or SKOV-3 cells and incubated for 30 minutes, then washed once with FACS buffer. 2 ug/mL APC labeled goat anti-mouse Fc secondary antibody diluted in FACS buffer was added to the cells and incubated for 20 minutes, then washed once with FACS buffer. Flow cytometry was performed with 20,000 cells per sample.
On the technique in general: A flow cytometer gives signals particle by particle.

Assay [13] deals with T4, engineered epitope 2, 29-mer of MUC16 …. In words: ELISA dose-response (FIG. 6).
Assay [14] deals with T1, engineered epitope 1, 58-mer of MUC16 …. The assay is described as follows: ELISA dose-response (FIG. 6).
For assay [15], the target named is T3, 230-mer MUC16 shed domain. The assay is described as follows: binding graphs of FIG. 7A (presumably BLI as for FIG. 5A).
Assay [16] deals with T2, MUC16 on OVCAR-3 (MUC16high) and SKOV-3 …. In words: flow cytometry on MUC16high and MUC16low cells (FIG. 7B).
The target in assay [17] is T5, engineered epitope 2, 29-mer of MUC16 …. In words: ELISA.
Assay [18] deals with T6, engineered epitope 1, 58-mer of MUC16 …. In words: ELISA.

B1: 21G6 anti-MUC16 clone (antibody, V domains shown)
VH: EVQLEESGPGLVKPSQSLSLTCTVTGYSITSDYAWNWIRQFPGNKLEWMGYISYSGSTIYNPSLKSRISITRDTSKNQFFLHLNSVTTEDTATYYCATLGLDYWGQGTTLTVSS
VL: DFVMTQSPSSLAVSVGEKVTMSCKSSQSLLYSSNQKNYLAWYQQKPGQSPKLLIYWASTRGSGVPDRFTGSGSGTDFTLTISSVKAEDLAVYYCQQYHSYRTFGGGTKLEIK
notes: Hybridoma antibody from immunized Balb/c mice; also called clone 21G6
On to B1, for which the binding result in assay [1] is on record as “binds”; in assay [2], “binds”; in assay [3] it was “no binding”; in [4], “binds”. Besides, the values for the EC50 in assay [5] and in [6] were 3.4 nM and 0.68 nM, respectively.

B2: 1D7 anti-MUC16 clone (antibody, V domains shown)
VH: EVMLVESGGGLVKPGGSLKLSCVASGFTFSSFAMSWVRQTPEKRLEWVAIISSGGGYIYYADSMTGRFTISRDNAKNTLYLQMSSLRSEDTAMYYCARLGGDYDEFYAKDYWGQGTSVTVSS
VL: DIQMTQSSSSFSVSLGDRVTITCKASEDIYNRLAWYQQKPGNAPRLLISGATSLETGVPSRFSGSGSGKDYTLSITSLQTEDVATYYCQQYWSTWTFGGGTKLEIK
notes: Hybridoma antibody from immunized Balb/c mice; Used as purified antibody in BLI and as hybridoma supernatant in flow cytometry; also called clone 1D7
Consider B2, for which the binding result in assay [7] was “binds”; in assay [8] it was “binds”; in assay [9] it was “no binding”; in [12], “binds”. Further, the concentration for a half-maximal effect (EC50) in assay [10] is 0.56 nM; in assay [11] it was 0.51 nM.

B3: 8G4 anti-MUC16 clone (antibody, V domains shown)
VH: QIQLVQSGPELKMPGETVKISCKASGYTFTNFGMNWVKQAPGKALKWMGWINTNTGKPTYFEEFKGRFAFSLETSASTAYLQINNLKNEDTATYFCARRWDRSAWFAYWGQGTLVTVSA
VL: QAVVTQESALTTSPGETVTLTCRSSTGAVTTSNYANWVQEKPDHLFTGLIGGTNDRSPGVPARFSGSLIGDKAALTITGAQTEDEAIYFCALWYSNHWVFGGGTKLTVL
notes: Hybridoma antibody from immunized Balb/c mice; also called clone 8G4
On to B3, for which the binding result is reported as “binds” in [13], “binds” in [14], “no binding” in [15] and “binds” in [16]. Also, the results for the 50% effective concentration (EC50) in assay [17] and in [18] were 0.23 nM and 0.19 nM, respectively.
